Data on 83 variants can be found in the RNAGym collection of RNA variant scans (doi:10.1093/molbev/msab373).

The chains are these.
B1: Azoarcus group I ribozyme (parent)
chain: GUGCCUUGCGCCGGGAAACCACGCAAGGGAUGGUGUCAAAUUCGGCGAAACCUAAGCGCCCGCCCGGGCGUAUGGCAACGCCGAGCCAAGCUUCGGCGCCUGCGCCGAUGAAGGUGUAGAGACUAGACGGCACCCACCUAAGGCAAACGCUAUGGUGAAGGCAUAGUCCAGGGAGUGGCGAAAGUCACACAAACCGG

Variants of B1 are the subject of the series. Nature of the series: reverse-splicing fitness (ratio to wild type); higher = more active; in vitro selection; Mg2+ level not given. A digest of the protocol:
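An in vitro group I ribozyme library with randomized positions was T7-transcribed and gel-purified. In triplicate, 10 pmol RNA in EPPS pH 7.5 was reacted with 50 pmoles of a 30-nt RNA substrate for 1 h at 37 °C across several added MgCl2 levels (1–48 mM), then stopped with EDTA. Products were reverse transcribed from a substrate-complementary primer, PCR-amplified and sequenced (HiSeq 4000). Fitness is a variant's read proportion after selection over that before, normalised to wild type.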
On to C82U A111U A120U A145G C169U U176A, for which the reverse-splicing fitness came to 0.00304.

C82U A111U A120G A145G C150U C169A: the reverse-splicing fitness was determined as 0.00995.

Consider C82U A111U A120G A145G C150U C169G, for which the reverse-splicing fitness worked out at 0.00964. With C82U A111U A120G A145G C150U C169U the figure was 0.0104; with C82U A111U A120U A145C C169U U176A, 0.00247. With C82U A111U A120U A145C C169U U176G the figure was 0.00177; with C82U A111U A120U A145C C169U U176C, 0.0022; with C82U A111U A120G C169A, 0.00883. As for C82U A111U A120G C169U, the reverse-splicing fitness came out at 0.0086. For the variant C82U A111U A120G C169G, the reverse-splicing fitness was 0.01. Consider C82U A111U A120U A145U C150A C169A, for which the reverse-splicing fitness is 0.00215. With C82U A111U A120G A145C U176G the figure was 0.00374; with C82U A111U A120G A145C U176C, 0.00925; with C82U A111U A120G A145C U176A, 0.00965.

On to C82U A111U A120G A145C C169G U176G, for which the reverse-splicing fitness was determined as 0.004. Consider C82U A111U A120G A145C C169G U176C, for which the reverse-splicing fitness was 0.0149. With C82U A111U A120G A145U C150U C169A U176A the figure was 0.0127; with C82U A111U A120G A145U C150U C169A U176G, 0.00462. Take C82U A111U A120G A145U C150U C169A U176C: the reverse-splicing fitness amounted to 0.00959. Consider C82U A111U A120G C150U C169U U176A, for which the reverse-splicing fitness amounted to 0.0214. As for C82U A111U A120G C150U C169U U176C, the reverse-splicing fitness worked out at 0.0158. With C82U A111U A120G C150U C169U U176G the figure was 0.00647. As for C82U A111U A120G A145G C169U U176A, the reverse-splicing fitness was determined as 0.0196. With C82U A111U A120G A145G C169U U176C the figure was 0.0159; with C82U A111U A120G A145G C169U U176G, 0.00458. On to C82U A111U A120G A145G C150G C169G U176G, for which the reverse-splicing fitness was 0.00498. With C82U A111U A120G A145G C150G C169G U176A the figure was 0.00842; with C82U A111U A120G A145G C150G C169G U176C, 0.0107; with C82U A111U A120G C150A C169A, 0.0103. With C82U A111U A120G C150A C169U the figure was 0.00823; with C82U A111U A120G C150A C169G, 0.0098. With C82U A111U A120U A145C U176C the figure was 0.00756.

For the variant C82U A111U A120U A145C U176G, the reverse-splicing fitness was found to be 0.00259. With C82U A111U A120U A145C U176A the figure was 0.00627; with C82U A111U A120U A145U C150A, 0.00625; with C82U A111U A120U A145G C150A C169A U176C, 0.00382. With C82U A111U A120U A145G C150A C169A U176G, the reverse-splicing fitness came out at 0.00245. With C82U A111U A120U A145G C150A C169A U176A the figure was 0.0063; with C82U A111U A120U A145G C150G C169G, 0.00647; with C82U A111U A120U A145G C150G C169U, 0.00706. With C82U A111U A120U A145G C150G C169A the figure was 0.00819. With C82U A111U A120U A145C C150U C169G U176A the figure was 0.00283; with C82U A111U A120U A145C C150U C169G U176G, 0.00171; with C82U A111U A120U A145C C150U C169G U176C, 0.00287. In the case of C82U A111U A120U A145G C150G U176C, the reverse-splicing fitness was 0.00721.

For C82U A111U A120U A145G C150G U176A, the reverse-splicing fitness is 0.00562.

Consider C82U A111U A120U A145G C150G U176G, for which the reverse-splicing fitness was 0.00324. With C82U A111U A120G A145G C150A C169U U176C the figure was 0.0157; with C82U A111U A120G A145G C150A C169U U176G, 0.00536. With C82U A111U A120G A145G C150A C169U U176A the figure was 0.0205. With C82U A111U A120G C150U U176G the figure was 0.00537; with C82U A111U A120G C150U U176C, 0.0136; with C82U A111U A120G C150U U176A, 0.0102. Take C82U A111U A120G A145U C150U: the reverse-splicing fitness came to 0.0114.

Turning to C82U A111U A120G A145U C150A, the reverse-splicing fitness came to 0.00808.

For the variant C82U A111U A120G A145U C150G, the reverse-splicing fitness worked out at 0.00635. With C82U A111U A120G A145U C150G C169G U176A, the reverse-splicing fitness turned out to be 0.00623.

With C82U A111U A120G A145U C150G C169G U176G, the reverse-splicing fitness amounted to 0.00385.

Regarding C82U A111U A120G A145U C150G C169G U176C, the reverse-splicing fitness is 0.00435.

Take C82U A111U A120G C169A U176C: the reverse-splicing fitness was 0.0221. With C82U A111U A120G C169A U176G, the reverse-splicing fitness amounted to 0.00417. With C82U A111U A120G C169A U176A, the reverse-splicing fitness is 0.0178. For the variant C82U A111U A120G A145G C169G U176A, the reverse-splicing fitness stood at 0.0214.

For C82U A111U A120G A145G C169G U176C, the reverse-splicing fitness turned out to be 0.027. As to C82U A111U A120G A145G C169G U176G, the reverse-splicing fitness turned out to be 0.00377. As to C82U A111U A120G A145U C150A C169G U176C, the reverse-splicing fitness worked out at 0.0136. With C82U A111U A120G A145U C150A C169G U176A the figure was 0.0132; with C82U A111U A120G A145U C150A C169G U176G, 0.0044; with C82U A111U A120G A145G C150U U176C, 0.0171.

Consider C82U A111U A120G A145G C150U U176G, for which the reverse-splicing fitness amounted to 0.00569. With C82U A111U A120G A145G C150U U176A the figure was 0.00911; with C82U A111U A120G A145U C150G C169A U176A, 0.00889; with C82U A111U A120G A145U C150G C169A U176G, 0.00439. With C82U A111U A120G A145U C150G C169A U176C the figure was 0.00812. For the variant C82U A111U A120U A145G C150U C169U U176G, the reverse-splicing fitness turned out to be 0.00209.

As for C82U A111U A120U A145G C150U C169U U176A, the reverse-splicing fitness was found to be 0.00396. With C82U A111U A120U A145G C150U C169U U176C the figure was 0.00399; with C82U A111U A120U A145C C150A C169A, 0.00214; with C82U A111U A120U A145C C150A C169G, 0.00215. With C82U A111U A120U A145C C150A C169U the figure was 0.00254; with C82U A111U A120G A145U C169U U176A, 0.0203; with C82U A111U A120G A145U C169U U176C, 0.0132.

For the variant C82U A111U A120G A145U C169U U176G, the reverse-splicing fitness was determined as 0.0035.
